Measured values: paper PMC7018950
One block for each substance: values may come before it.

Assays:
[1] = target: His6-tagged Ginkgo biloba chalcone synthase (GbCHS) (Ginkgo biloba); test: BLI; BLItz; His6-tagged CHS immobilised on anti-His6 sensors, GST-tagged CHIL loaded (30-150 s), wash (150-270 s); 100 mM HEPES-NaOH, pH 7.5; 1:1 binding model; apparent KD
[2] = target: His6-tagged Selaginella moellendorffii chalcone synthase (SmCHS) (Selaginella moellendorffii); test: as above
[3] = target: PpCHS (GAL4 two-hybrid fusion) (Physcomitrella patens)
[4] = target: His6-tagged soybean chalcone synthase isozyme 1 (GmCHS-1) (Glycine max) (UniProt P24826); test: BLI; BLItz; His6-tagged CHS immobilised on anti-His6 sensors, GST-tagged CHIL loaded (30-150 s), wash (150-270 s); 100 mM HEPES-NaOH, pH 7.5; 1:1 binding model; apparent KD
His6-tagged soybean chalcone synthase isozyme 1 (GmCHS-1) (Glycine max), sequence (P24826 whole entry): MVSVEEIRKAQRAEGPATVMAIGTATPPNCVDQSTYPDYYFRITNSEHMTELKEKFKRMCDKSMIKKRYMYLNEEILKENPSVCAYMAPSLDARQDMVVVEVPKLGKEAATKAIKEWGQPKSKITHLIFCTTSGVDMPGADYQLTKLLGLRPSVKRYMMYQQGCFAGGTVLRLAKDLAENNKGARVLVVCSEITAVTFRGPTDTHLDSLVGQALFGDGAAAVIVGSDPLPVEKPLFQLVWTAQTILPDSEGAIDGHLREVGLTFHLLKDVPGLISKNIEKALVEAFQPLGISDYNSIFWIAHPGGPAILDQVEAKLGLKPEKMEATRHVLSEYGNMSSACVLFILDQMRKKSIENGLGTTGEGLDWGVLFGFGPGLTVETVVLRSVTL

[5] = target: His6-tagged soybean chalcone synthase isozyme 7 (GmCHS-7) (Glycine max) (UniProt P30081); test: as above
His6-tagged soybean chalcone synthase isozyme 7 (GmCHS-7) (Glycine max), sequence (P30081 whole entry): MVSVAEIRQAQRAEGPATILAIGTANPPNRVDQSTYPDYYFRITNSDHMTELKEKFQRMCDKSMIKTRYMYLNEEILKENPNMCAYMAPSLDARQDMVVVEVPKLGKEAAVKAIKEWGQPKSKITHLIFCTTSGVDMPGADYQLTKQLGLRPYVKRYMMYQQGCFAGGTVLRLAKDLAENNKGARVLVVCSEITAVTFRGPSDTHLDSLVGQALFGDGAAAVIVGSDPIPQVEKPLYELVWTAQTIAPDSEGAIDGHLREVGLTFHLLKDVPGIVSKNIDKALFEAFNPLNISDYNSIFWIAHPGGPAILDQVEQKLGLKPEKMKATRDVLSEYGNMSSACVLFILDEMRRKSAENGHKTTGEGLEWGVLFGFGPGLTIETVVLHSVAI

[6] = target: His6-tagged Hydrangea macrophylla chalcone synthase (HmCHS) (Hydrangea macrophylla) (UniProt O82144); test: as above
His6-tagged Hydrangea macrophylla chalcone synthase (HmCHS) (Hydrangea macrophylla), sequence (O82144 whole entry): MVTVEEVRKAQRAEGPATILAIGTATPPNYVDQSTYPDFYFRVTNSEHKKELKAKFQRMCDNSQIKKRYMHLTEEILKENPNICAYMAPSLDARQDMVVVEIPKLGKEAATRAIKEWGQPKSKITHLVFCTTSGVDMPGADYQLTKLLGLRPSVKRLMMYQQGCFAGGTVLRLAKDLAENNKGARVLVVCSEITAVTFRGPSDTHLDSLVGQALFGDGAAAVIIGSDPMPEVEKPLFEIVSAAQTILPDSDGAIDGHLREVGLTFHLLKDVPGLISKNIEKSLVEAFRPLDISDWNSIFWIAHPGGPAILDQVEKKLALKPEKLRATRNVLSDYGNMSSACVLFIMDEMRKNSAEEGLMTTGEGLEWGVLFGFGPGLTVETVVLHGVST

[7] = target: His6-tagged Physcomitrella patens chalcone synthase (PpCHS) (Physcomitrella patens); test: as above
His6-tagged Physcomitrella patens chalcone synthase (PpCHS) (Physcomitrella patens), sequence (Q2VAZ3 entry or part of it): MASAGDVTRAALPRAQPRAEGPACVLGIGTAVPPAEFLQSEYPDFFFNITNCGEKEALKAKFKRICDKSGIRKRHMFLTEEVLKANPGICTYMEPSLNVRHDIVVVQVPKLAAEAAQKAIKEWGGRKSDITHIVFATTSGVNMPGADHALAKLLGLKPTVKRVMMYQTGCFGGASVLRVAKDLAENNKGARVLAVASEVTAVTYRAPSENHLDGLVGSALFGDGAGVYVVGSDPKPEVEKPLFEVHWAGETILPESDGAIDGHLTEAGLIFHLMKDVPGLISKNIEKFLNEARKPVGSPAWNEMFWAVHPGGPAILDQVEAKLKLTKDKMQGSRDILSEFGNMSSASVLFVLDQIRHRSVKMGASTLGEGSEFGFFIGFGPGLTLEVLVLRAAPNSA

[8] = target: His6-tagged snapdragon CHS (Antirrhinum majus (snapdragon)) (UniProt P06515)
His6-tagged snapdragon CHS (Antirrhinum majus (snapdragon)), sequence (P06515 whole entry): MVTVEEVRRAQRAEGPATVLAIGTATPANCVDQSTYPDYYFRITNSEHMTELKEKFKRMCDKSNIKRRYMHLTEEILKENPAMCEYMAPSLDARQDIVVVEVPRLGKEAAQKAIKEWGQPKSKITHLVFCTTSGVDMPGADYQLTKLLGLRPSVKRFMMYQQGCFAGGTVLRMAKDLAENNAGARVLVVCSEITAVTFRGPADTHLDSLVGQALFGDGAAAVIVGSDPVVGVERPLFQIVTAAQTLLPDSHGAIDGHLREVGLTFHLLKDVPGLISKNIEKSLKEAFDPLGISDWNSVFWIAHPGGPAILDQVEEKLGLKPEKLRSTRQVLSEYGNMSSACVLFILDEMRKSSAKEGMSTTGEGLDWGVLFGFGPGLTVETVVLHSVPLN

[9] = target: His6-tagged snapdragon CHS (Antirrhinum majus (snapdragon)) (UniProt P06515); test: cross-linking; His6-AmCHIL 10 µM and His6-AmCHS 5 µM with 4 mM BS3 at pH 7.5 for 5 min; SDS-PAGE and immunoblot; band of 70 kDa
[10] = target: His6-tagged rice chalcone synthase 1 (OsCHS-1) (Oryza sativa) (UniProt Q2R3A1); test: BLI; BLItz; His6-tagged CHS immobilised on anti-His6 sensors, GST-tagged CHIL loaded (30-150 s), wash (150-270 s); 100 mM HEPES-NaOH, pH 7.5; 1:1 binding model; apparent KD
His6-tagged rice chalcone synthase 1 (OsCHS-1) (Oryza sativa), sequence (Q2R3A1 whole entry): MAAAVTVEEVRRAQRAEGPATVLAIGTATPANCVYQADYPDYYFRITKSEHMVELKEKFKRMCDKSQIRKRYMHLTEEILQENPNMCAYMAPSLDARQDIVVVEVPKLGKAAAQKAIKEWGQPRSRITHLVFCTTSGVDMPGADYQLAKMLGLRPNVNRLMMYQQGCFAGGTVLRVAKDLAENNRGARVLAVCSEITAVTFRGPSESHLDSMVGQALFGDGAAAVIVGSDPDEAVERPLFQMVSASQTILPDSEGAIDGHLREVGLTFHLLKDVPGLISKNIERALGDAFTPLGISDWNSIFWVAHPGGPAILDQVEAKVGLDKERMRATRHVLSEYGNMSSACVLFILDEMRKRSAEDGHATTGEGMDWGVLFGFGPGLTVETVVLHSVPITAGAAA

[11] = target: His6-tagged CHS of ginkgo (Ginkgo biloba); test: BLI; BLItz; His6-tagged CHS immobilised on anti-His6 sensors, GST-tagged CHIL loaded; 100 mM HEPES-NaOH pH 7.5; 1:1 binding model; apparent KD
[12] = target: His6-tagged snapdragon chalcone synthase (His6-AmCHS) (Antirrhinum majus) (UniProt P06515); test: BLI; BLItz; His6-tagged CHS immobilised on anti-His6 sensors, GST-tagged CHIL loaded (30-150 s), wash (150-270 s); 100 mM HEPES-NaOH, pH 7.5; 1:1 binding model; apparent KD
His6-tagged snapdragon chalcone synthase (His6-AmCHS) (Antirrhinum majus), sequence (P06515 whole entry): as the sequence (P06515 whole entry) above

[13] = target: His6-tagged morning glory chalcone synthase D (InCHS-D) (Ipomoea nil) (UniProt O22045); test: as above
His6-tagged morning glory chalcone synthase D (InCHS-D) (Ipomoea nil), sequence (O22045 whole entry): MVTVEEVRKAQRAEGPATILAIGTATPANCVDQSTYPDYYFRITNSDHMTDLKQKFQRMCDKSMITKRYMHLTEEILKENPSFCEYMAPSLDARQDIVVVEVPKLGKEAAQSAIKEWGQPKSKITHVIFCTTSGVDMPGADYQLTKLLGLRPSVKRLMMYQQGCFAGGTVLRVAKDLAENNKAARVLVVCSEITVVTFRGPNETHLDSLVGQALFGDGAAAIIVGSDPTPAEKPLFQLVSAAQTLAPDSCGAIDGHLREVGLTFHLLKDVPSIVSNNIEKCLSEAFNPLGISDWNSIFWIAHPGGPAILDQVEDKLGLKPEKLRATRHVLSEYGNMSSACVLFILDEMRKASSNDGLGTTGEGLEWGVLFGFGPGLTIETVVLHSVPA

Substance: glutathione S-transferase-tagged Selaginella moellendorffii chalcone isomerase-like protein (SmCHIL) (natural protein)
- Kd [2]: 56.6 nM
- koff [2]: 0.000674 s⁻¹
- kon [2]: 11900 M⁻¹ s⁻¹

Substance: PpCHIL (GAL4 two-hybrid fusion) (natural protein)
- E value (chalconoid excess over CTAL) of the reaction catalysed by 0.1 µM PpCHS in the presence of 1 µM CHIL (−67% without CHIL); purified recombinant proteins [3]: 90%

Substance: glutathione S-transferase-tagged rice chalcone isomerase-like protein A (OsCHIL-A) (natural protein)
- Kd [10]: 64.4 nM
- koff [10]: 0.000672 s⁻¹
- kon [10]: 10400 M⁻¹ s⁻¹

Substance: glutathione S-transferase-tagged CHIL of ginkgo (natural protein)
- Kd [11]: 126 nM

Substance: glutathione S-transferase-tagged snapdragon chalcone isomerase-like protein (AmCHIL) (natural protein)
- Kd [12]: 62.6 nM
- koff [12]: 0.00183 s⁻¹
- kon [12]: 29300 M⁻¹ s⁻¹

The next lines start with the values.

- koff [1]: 0.000154 s⁻¹
- kon [1]: 20200 M⁻¹ s⁻¹
Substance: glutathione S-transferase-tagged Ginkgo biloba chalcone isomerase-like protein (GbCHIL) (natural protein)

- Kd [4]: 7.46 nM
- koff [4]: 0.000381 s⁻¹
- kon [4]: 51000 M⁻¹ s⁻¹
- Kd [5]: 19.3 nM
- koff [5]: 0.00113 s⁻¹
- kon [5]: 58300 M⁻¹ s⁻¹
Substance: glutathione S-transferase-tagged soybean chalcone isomerase-like protein (GmCHIL) (natural protein)

- Kd [6]: 24.1 nM
- koff [6]: 0.00277 s⁻¹
- kon [6]: 115000 M⁻¹ s⁻¹
Substance: glutathione S-transferase-tagged Hydrangea macrophylla chalcone isomerase-like protein (HmCHIL) (natural protein)

- Kd [7]: 2.69 nM
- koff [7]: 0.000319 s⁻¹
- kon [7]: 118000 M⁻¹ s⁻¹
Substance: glutathione S-transferase-tagged Physcomitrella patens chalcone isomerase-like protein A (PpCHIL-A) (natural protein)

- E value (chalconoid excess over CTAL) of the reaction catalysed by 0.1 µM AmCHS in the presence of 1 µM CHIL (+18% without CHIL) [8]: 80%
- amount of THC and naringenin (chalconoids) formed by 0.1 µM AmCHS with 1.0 µM AmCHIL against without, with a substantial decrease in CTAL formation [8]: 1.7 fold
- stoichiometry N (CHIL monomer per CHS monomer) [9]: 1
Substance: His6-tagged snapdragon CHIL (natural protein)

- Kd [13]: 1.05 nM
- koff [13]: 0.000206 s⁻¹
- kon [13]: 196000 M⁻¹ s⁻¹
Substance: glutathione S-transferase-tagged morning glory chalcone isomerase-like protein (InCHIL) (natural protein)
